According to patent US20020064528A1 (published 2002):

B1: scFv p1C11 (scFv)
chain: QVKLQQSGAELVGSGASVKLSCTTSGFNIKDFYMHWVKQRPEQGLEWIGWIDPENGDSDYAPKFQGKATMTADSSSNTAYLQLSSLTSEDTAVYYCNAYYGDYEGYWGQGTTVTVSSGGGGSGGGGSGGGGSDIELTQSPAIMSASPGEKVTITCSASSSVSYMHWFQQKPGTSPKLWIYSTSNLASGVPARFSGSGSGTSYSLTISRMEAEDAATYYCQQRSSYPFTFGSGTKLEIK
B2: chimeric anti-KDR antibody c-p1C11 (antibody, V domains shown)
VH: QVKLQQSGAELVGSGASVKLSCTTSGFNIKDFYMHWVKQRPEQGLEWIGWIDPENGDSDYAPKFQGKATMTADSSSNTAYLQLSSLTSEDTAVYYCNAYYGDYEGYWGQGTTVTVSS
VL: DIELTQSPAIMSASPGEKVTITCSASSSVSYMHWFQQKPGTSPKLWIYSTSNLASGVPARFSGSGSGTSYSLTISRMEAEDAATYYCQQRSSYPFTFGSGTKLEIK
notes: Bivalent chimeric IgG1/kappa with the mouse variable domains of p1C11; expressed in COS cells and purified on Protein G. The leader peptide added for secretion is not part of the mature protein; also called Chimeric-p1C11; c-p1C11 IgG

Tests used:
[1] = biological target: KDR expressed on the surface of HUVEC (human, UniProt P35968 20-1356); test: cell-based or functional assay
[2] = biological target: T1, soluble fusion protein KDR-AP (human, UniProt P35968 20-764); test: direct binding ELISA on KDR-coated plate, detected by anti-E tag antibody-HRP
T1 construct: extracellular domain; Expressed in NIH 3T3 cells; also called KDR-alkaline phosphatase fusion protein; immobilized KDR; not shown: human placental alkaline phosphatase (AP) of the vector AP-Tag

[3] = biological target: T1, soluble fusion protein KDR-AP; test: BIAcore, KDR-AP immobilized (Table 2)
Procedure: Sensorgrams were obtained at each concentration and were evaluated using a program, BIA Evaluation 2.0, to determine the rate constants kon and koff. Kd was calculated as the ratio of rate constants koff/kon.
*All rates are determined by surface plasmon resonance using BIAcore system and are mean of at least three separate determinations.

T1 sequence (P35968 20-764): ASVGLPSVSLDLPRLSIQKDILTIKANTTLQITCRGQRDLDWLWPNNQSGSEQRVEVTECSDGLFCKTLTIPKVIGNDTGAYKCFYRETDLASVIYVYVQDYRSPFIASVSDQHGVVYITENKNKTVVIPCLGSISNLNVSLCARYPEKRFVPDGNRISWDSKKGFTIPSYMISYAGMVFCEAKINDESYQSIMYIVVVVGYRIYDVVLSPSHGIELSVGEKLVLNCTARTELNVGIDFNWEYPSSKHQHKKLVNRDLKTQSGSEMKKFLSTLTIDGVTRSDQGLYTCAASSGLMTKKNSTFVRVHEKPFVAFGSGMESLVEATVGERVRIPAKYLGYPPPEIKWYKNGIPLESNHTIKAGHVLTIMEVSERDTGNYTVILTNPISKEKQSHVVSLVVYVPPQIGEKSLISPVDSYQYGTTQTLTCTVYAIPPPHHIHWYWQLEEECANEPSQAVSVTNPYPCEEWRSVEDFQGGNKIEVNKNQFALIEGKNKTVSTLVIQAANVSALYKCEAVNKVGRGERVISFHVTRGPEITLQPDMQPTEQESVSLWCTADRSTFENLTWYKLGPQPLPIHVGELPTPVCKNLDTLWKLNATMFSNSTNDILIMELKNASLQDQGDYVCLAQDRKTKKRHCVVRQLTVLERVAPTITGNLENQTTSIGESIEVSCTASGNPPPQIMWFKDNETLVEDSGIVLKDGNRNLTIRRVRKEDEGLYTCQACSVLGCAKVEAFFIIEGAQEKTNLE
KDR expressed on the surface of HUVEC, sequence (P35968 20-1356): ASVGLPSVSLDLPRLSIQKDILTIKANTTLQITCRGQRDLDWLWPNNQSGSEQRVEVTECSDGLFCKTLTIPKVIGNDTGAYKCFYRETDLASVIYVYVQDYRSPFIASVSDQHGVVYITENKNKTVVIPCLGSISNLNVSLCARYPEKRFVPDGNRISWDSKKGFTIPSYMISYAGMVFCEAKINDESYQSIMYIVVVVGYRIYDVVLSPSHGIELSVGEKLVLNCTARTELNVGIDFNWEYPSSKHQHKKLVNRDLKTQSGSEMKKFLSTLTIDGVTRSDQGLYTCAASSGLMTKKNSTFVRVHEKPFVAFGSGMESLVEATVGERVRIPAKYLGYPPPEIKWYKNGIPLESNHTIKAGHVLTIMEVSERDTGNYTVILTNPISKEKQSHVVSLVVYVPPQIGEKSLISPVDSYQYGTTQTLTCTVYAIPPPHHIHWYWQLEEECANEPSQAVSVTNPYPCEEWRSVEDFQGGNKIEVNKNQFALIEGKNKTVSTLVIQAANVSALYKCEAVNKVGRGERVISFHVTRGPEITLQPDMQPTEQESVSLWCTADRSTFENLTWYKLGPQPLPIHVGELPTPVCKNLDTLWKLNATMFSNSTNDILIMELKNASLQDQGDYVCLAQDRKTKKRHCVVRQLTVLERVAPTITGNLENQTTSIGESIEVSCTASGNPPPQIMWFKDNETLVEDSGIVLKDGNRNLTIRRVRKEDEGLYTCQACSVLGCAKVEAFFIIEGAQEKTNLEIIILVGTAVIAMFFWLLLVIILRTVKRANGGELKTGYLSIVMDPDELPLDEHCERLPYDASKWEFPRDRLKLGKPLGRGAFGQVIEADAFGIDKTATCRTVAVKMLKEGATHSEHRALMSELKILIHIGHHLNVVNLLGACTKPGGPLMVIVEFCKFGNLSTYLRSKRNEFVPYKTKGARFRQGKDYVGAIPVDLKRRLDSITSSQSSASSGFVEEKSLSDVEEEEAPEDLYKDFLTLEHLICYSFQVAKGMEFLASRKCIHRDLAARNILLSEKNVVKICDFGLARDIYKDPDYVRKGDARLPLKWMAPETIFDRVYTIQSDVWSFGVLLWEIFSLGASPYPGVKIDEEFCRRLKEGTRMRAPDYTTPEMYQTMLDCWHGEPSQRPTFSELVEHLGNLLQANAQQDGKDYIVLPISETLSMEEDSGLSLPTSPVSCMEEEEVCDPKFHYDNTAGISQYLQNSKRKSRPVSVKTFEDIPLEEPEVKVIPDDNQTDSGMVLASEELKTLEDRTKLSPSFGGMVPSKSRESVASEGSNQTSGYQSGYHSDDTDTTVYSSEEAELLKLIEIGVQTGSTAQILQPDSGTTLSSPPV

Binder | EC50, antibody concentration that inhibited 50% of VEGF-stimulated mitogenesis of HUVEC ([3H]-TdR incorporation) [1] [nM] | EC50 (read off the curve) [2] [nM] | fold higher affinity than the parent scFv [3] [fold]
B1 | ~5 | ~0.8 | 
B2 |  |  | ~2.5
